Experimental findings from the DeepSol protein solubility set are described below.

The data set in a line: soluble on expression in E. coli; label from the status in PepcDB or PDB records.
As for “MAGDPMNEEQRKASSVDVLAERDKKAEKDYSKYFEHVYQPPNLKEAKKRGKQEVRYNRDFQIDEKYRGMGNERTFLIKTYGCQMNAHDTEVIAGILEALGYQATTDINTADVILINTCAIRENAENKVFSEIGNLKHLKKERPDILIGVCGCMSQEESVVNKILKSYQNVDMIFGTHNIHHLPEILEEAYLSKAMVVEVWSKEGDVIENLPKVREGNIKAWVNIMYGCDKFCTYCIVPFTRGKERSRRPEDIIDEVRELAREGYKEITLLGQNVNSYGKDLQDIEYDLGDLLQAISKIAIPRVRFTTSHPWDFTDHMIDVISEGGNIVPHIHLPVQSGNNAVLKIMGRKYTRESYLDLVKRIKDRIPNVALTTDIIVGYPNESEEQFEETLTLYDEVGFEHAYTYLYSQRDGTPAAKMKDNVPLNVKKERLQRLNKKVGHYSQIAMSKYEGQTVTVLCEGSSKKDDQVLAGYTDKNKLVNFKAPKEMIGKLVEVRIDEAKQYSLNGSFVKEVEPEMVIQLEHHHHHH”, the “soluble on expression in E. coli” value is “soluble”.

In the case of “PRTVKELTVSAGDNLIITLPDNEVELKAFVAPAPPVETTYNYEWNLISHPTDYQGEIKQGHKQTLNLSQLSVGLYVFKVTVSSENAFGEGFVNVTVKPAR”, the “soluble on expression in E. coli” value is “soluble”.

Take “MTIIAGTVVKGKQLGRKLGFPTANVDAKIHGLRNGVYGVLATVNHQFHLGVMNIGVKPTVGSNLEKTLEIFLFDFHRDIYGEKIECSILFKIREERRFDSLESLTKQIKKDISCVAKRFELIGIMAPNKKESLLSHQELNLPDLCFYKKCNNLYGVNRGVYNVIDNWFFEYGITQVAYRRIYILSFLSFLKEDNPKVSSKYIRFGAGGLADKLNRFISSYVEESEENILGLEHHHHHH”: the “soluble on expression in E. coli” value was “soluble”.

On to “MSSDVAGVKKSSSSSSSTSSPFMFSMLLMFSRSISSTIKISANRILLCCTSSFSTTSGFFKIESNRLTSRSSSGIFSRTACNRSCGNCFSISAVLSFCVAPLCCKSTGRFSSAIYLLIFRSTR”, for which the “soluble on expression in E. coli” value was “soluble”.

Regarding “MINFHPNVKRAISQAAQKYGLPESFLERVAMIESKGNPNARNSKSSAGGLYQFLDSTAKQYQLNNKFDPFQATDAMARLTKDNTRYLATALGREPSQAELYLAHQQGPAGAVKLIKNPNVPASQLLGRQAVVLNGGNVEATAGDFMNHIYGLYNKTGEASNGRARQSWGNGQSAANEVVPLRGVERFQKAIQGAQARKPLMAYDTPLHENTRFQGQGIDAGALKKSVMSLVDLMRRNKDAQNQQIEMAHQQMMQQPMMTGFSQSSAHPVDLTLLIDPSRRNPVRSYGQQKKQQLQEELLRRTGAYHV”, the “soluble on expression in E. coli” value is listed as “not soluble”.

“MSLYTFKELKRATKQDTVSLPKLKVALLGDTATQLLATAIKGEGILRNYNIELWEAEYNQVERQIMDPTSDYYQFEPDYTIIFHSTHKLLEKHSLVNSDLQNKLADDRLDFVRLLCEQGIGRVIYYNYPEIEDTIWGSYATKVQSSFTYQLTKLNYELMNISQAYPNFFICNLAGISAKYGRNFMFDSSVYVNTEIILSLDALPIISSRTIDIIAAIQGKFKKCLILDLDNTIWGGVVGDDGWENIQVGHGLGIGKAFTEFQEWVKKLKNRGIIIAVCSKNNEGKAKEPFERNPEMVLKLDDIAVFVANWENKADNIRTIQRTLNIGFDSMVFLDDNPFERNMVREHVPGVTVPELPEDPGDYLEYLYTLNLFETASFSEDDKDRTKQYQIEAKRVSLQQSFTNEAEFLKSLDMVSEVKGFDKFNTPRVAQLSQRSNQFNLRTVRYTEAEIAAIESDLHYATFSFTLADRFGDNGLICVIILEKQDTETLFINTWFMSCRVLKRGMENFTLNTLVDYARSNGFKRFIGEYLPSAKNQMVEEHYPHLGFSKMEGGDNAARYVLDVEEGHHHHHH”: the “soluble on expression in E. coli” value is recorded as “not soluble”.

Take “MENIVNRTYTRIGQLLKQDISQGIYSIGDKLPTEREISEKFGVSRTIVREAMVMLEVEKLVEVKKGSGVYVVRTPESIHMEHSDLPDVGPFELLQARQLLESSIAEFAALQATKKDILNLKQILNREKELLTQNQDDYSADKDFHLALAEITQNDVLVKLQEQLWQYRFNSAMWAQLHSRILQNDYHHLWIEDHQTILSAIQKKNANEARKAMWQHLENVKVKLFELSDVEDPHFDGYLFNTNPVVVGI”: the “soluble on expression in E. coli” value was “not soluble”.

“MARFVVLVIDSFGVGAMKDVTLVRPQDAGANTCGHILSQLPHLQLPTLETLGLINALGYAPGDMQPSDSATWGVAELQHEGGDTFMGHQEILGTRPLPPLRMPFRDVIDRVEQALVSAGWQVERRGDDLQFLWVNQAVAIGDNLEADLGQVYNITANLSVISFDDAIKIGRIVREQVQVGRVITFGGLLTDSQRILDAAESKEGRFIGINAPRSGAYDNGFQVVHMGYGVDEKVQVPQKLYEAGVPTVLVGKVADIVNNPYGVSWQNLVDSQRIMDITLNEFNTHPTAFICTNIQETDLAGHAEDVARYAERLQVVDRNLARLVEAMQPDDCLVVMADHGNDPTIGHSHHTREVVPVLVYQQGMIATQLGVRTTLSDVGATVCEFFRAPPPQNGRSFLSSLRFAGDTLGKWYYLNSNGAMVTGSQTIDGKVYNFASSGEWI”: the “soluble on expression in E. coli” value is “not soluble”.

With “MAKIKLPIVTINAKGGAQYVVEGVEAVNALTQLENYPERGIRIKVDGKMTVITEGCLCSAAVTGEVEVDVPEIVCEEVECEPISNILPNPKNPTDPGENSKPEEKAGEK”, the “soluble on expression in E. coli” value was “not soluble”.

Take “MGSDKIHHHHHHMHFAPVEQATRFLADNPDIELFELFILDANGVPRGKLLHREELLAVYQTGRPLPSTILGLTLNGDDVENSGLVWDVGDIDCRAYPLDGSLVRLPWRRVPTAAVQVSMHPSEGLPASIADPRHVLLRTIEALKADGYHPVMACELEFYLLDQQRDAQGRPQPALDNDGGRPRSTQVYGLRELEQIEPFLADLYAACKAQGIPARTAISEYAPGQVEITLEHGDALQAMDQAVRYKRLVKGVAHAHGMQACFMAKPFAQLAGTGMHMHLSLADSAGNNLFASEDKAGTPLLRQAVAGMLRHLRDSLLLFCPNANSFRRFQANSYAPLAPTWGVDNRTVSLRVPGGPANSRHVEHRICGADANPYLAAAAILAASHWGIREQLDPGAPVEGNGYAQATEHLPTDWLTALDALQHSDWAREALGEDFLGVYLKVKRAEYRQFMAEVSEQDWRWYLHQA”: the “soluble on expression in E. coli” value is recorded as “not soluble”.

Regarding “MVPAPEAIRQALQERLLARLDHPDPLYRDLLQDYPRRGGKMLRGLLTVYSALAHGAPLEAGLEAATALELFQNWVLVHDDIEDGSEERRGRPALHRLHPMPLALNAGDAMHAEMWGLLAEGLARGLFPPEVLLEFHEVVRRTAYGQHLDLLWTLGGTFDLRPEDYFRMVAHKAAYYTAVAPLRLGALLAGKTPPAAYEEGGLRLGTAFQIVDDVLNLEGGEAYGKERAGDLYEGKRTLILLRFLEEAPPEERARALALLALPREAKPEAEVGWLLERLLASRALAWAKAEAKRLQAEGLALLEAAFQDLPGKEALDHLRGLLAALVERRA”, the “soluble on expression in E. coli” value is on record as “soluble”.

As to “MGSDKIHHHHHHMRIAIIEDEPLAAEKLAGYIQRQWPEAKIIATLSSVDAVIEFFNQPQNLDLLFSDIELSDGQVFSALEQIDVPCPVIFTTSYNDYWMNAFQNQGIEYLLKPFSFKRFSQAVANYQALFEQRSKIETTSFKQRFIIKQQGASEMLNVAEIHCFRAANGTILAGDKQGQYHILSDNNLSQLEAQLDPKVFFRINRADIININSLIKFETYTKETLALYIKGYSEALVTSKTRTANFRKWLEA”, the “soluble on expression in E. coli” value is “not soluble”.

Take “MSLKATSSDDKVTFHALNGDVKVPKNPKRIAVQNYPDEVASLGANVVGTDSWAFPNTFLSKDQKKNMVDLGAPKFNMEKLIAQNPDLIITVDKDQVADYQKVAPTVLVNYKDLSGMNKSLDYFAKLLNREDEKASFLKNFKKEADKQKEKLAKVDVKPAKNTISLLELQGDKVYAFGDNFARGGQALTTGLGFKESSKMAELSKGVGYAEVNTESLGEFDADYIFIDFADKDKEQYAALKNNPAWQNLKAVKEGHVITMDYDKVYFFGGPTAAKEELSLYTDAIIKATKEGHHHHHH”: the “soluble on expression in E. coli” value is reported as “soluble”.

“MFLEKDMQKNTLWFNGLSMDDVDKVGGKNASLGEMVSNLANVGVSVPNGFATTSYAFNQFLDHEGLDERIHQLLDELDVDDVEALRKTGATIRQWVLQAPFPADLEQEIRNNYEELIEGNTELSVAVRSSATAEDLPDASFAGQQETFLNVKGIDAVLEATKHVYASLFNDRAISYRVHQGFDHRGISLSAGIQRMVRSDKASSGVMFTLDTESGFDQVVFITSSWGLGEMVVQGAVNPDEFYVHKPMLEAGEHPIVKKTFGSKLIKMIYSNNQEIGKQVDIIDTSEEERNTFSLNEEEIKELAKQAMIIEKHYQRPMDIEWAKDGIDGKLYIVQARPETVCSQTEQNVIERYELNNKADVLVEG”: the “soluble on expression in E. coli” value is reported as “not soluble”.

Turning to “MGSDKIHHHHHHDKAYTDAESYTKGLHKIYSVWALSGQDGSSSSDISGLDAGNTALLRCWWTLQEQPTDEMKNAWNDAWCTEVNYMTWTTNKVEPIEGVYQRCMYIVALVNEFLKNIPNAPESIDKESYIAQARFNRAFAYYVLMDMFALPPFITEKNYSIEPAPLSREDLFNWIEAELNEIKPNLPSPRSEYGVADQAVASALLARMYLNAEIYTGKARYTECINACNEVIKAGYQLADNYADLFKADNGENPDTKKEIIYPIIFDGDKTQSWGMAAIIIGARGAEDKDVLLAHSGVDQGWAGFRATSNLVHLFDFQNDEEPKASEIQDKRGIFYDKGRSIDITSSVSGTFETEGWSVFKFSNLNSNGQPGKNTLWVDTDFPMFRLGDIYLMYAEAVARGGEGSKASAVEYINALRKRAYGDDKHNISENWLEENNFRNLLDERGRELYWEGIRRTDLVRFDLLTSGSYTWDFKGGINTGVGVNKRYNVYPIPVTDLTVNGNLQQNEGY”, the “soluble on expression in E. coli” value was “not soluble”.

As to “MNLRGILPFAHDTLRKVVRSGDYVVDATCGNGHDTLLLAELVGINGHVLGFDIQQLAIDATNTRLENAGVSSQVELVCASHARIPEYTSKPVRAAIFNLGYLPGGDKEITTTADSTLESIGHLMELLEVGGVIILVIYHGHPAGKQEKDAVMTFCEAIPQQDFHVLSYNFINQKNDAPFVIIIEKRKPRQSLEHHHHHH”, the “soluble on expression in E. coli” value was “soluble”.

“MAGDPMSRPPVPPFTCKTAIEKVRLAEDGWNSRDAAKVALAYTVDTRWRNRVEFATNREEAQAFLTRKWNREHEYRLIKELWAFTGNRIAVRYAYEYRDDNGQWFRAYGNENWEFAEDGLMAHRHACINEMPIAESDRLYHWPLGRRPDDHPSLTDLGLLEHHHHHH”: the “soluble on expression in E. coli” value was “not soluble”.

As to “MKQGTVKWFNAEKGFGFIEVEGENDVFVHFSAINQDGYKSLEEGQAVEFEVVEGDRGPQAANVVKL”, the “soluble on expression in E. coli” value is recorded as “not soluble”.

For the sequence “MPVRKAKAVWEGGLRQGKGVMELQSQAFQGPYSYPSRFEEGEGTNPEELIAAAHAGCFSMALAASLEREGFPPKRVSTEARVHLEVVDGKPTLTRIELLTEAEVPGISSEKFLEIAEAAKEGCPVSRALAGVKEVVLTARLV”, the “soluble on expression in E. coli” value is reported as “soluble”.

With “MVINQNEAHAIQRIDSDEEPTVSVVDVVATVATPHFDEPLKRKWRLKCAEYGTFMASLLDTDFAEHVTAHQVRCDGVRFKVKLRVEEAKGRSPRFEILAMSPEDSSGVQTLL”, the “soluble on expression in E. coli” value was “not soluble”.

Consider “MSTRNSRSELEKTAVQLFRKLGTRTVLFHQAAAQALGLFPTDLKSADILNEAGPMTAGELGKKTGLSTGSVTALVDRLEKAGVCGSWKRTPNDRRRVVIVPLTASKKHIKDLFRPLSESTMDLCREYTEEELELIFSFVGKAADIMEEELERLKQ”, for which the “soluble on expression in E. coli” value is reported as “not soluble”.

As to “PNLTEISKKITESNAVVLAVKEVETLLASIDELATKAIGKKIGNNGLEANQSKNTSLLSGAYAISDLIAEKLNVLKNEELKEKIDTAKQCSTEFTNKLKSEHAVLGLDNLTDDNAQRAILKKHANKDKGAAELEKLFKAVENLSKAAQDTLKNAVKELTSPIVA”, the “soluble on expression in E. coli” value is reported as “soluble”.
